The supplement of paper PMC12667976
± gives the standard error.

B1: library; numbered along this chain (parent)
chain: MATDAALRRLLRLHRTEIAVAVDSAFPLLHALADHDVVPEDKFQETLHLKEKEGCPQAFHALLSWLLTQDSTAILDFWRVLFKDYNLERYGRLQPILDSFPKDVDLSQPRKGRKPPAVPKALVPPPRLPTKRKASEEARAAAPAALTPRGTASPGSQLKAKPPKKPESSAEQQRLPLGNGIQTMSASVQRAVAMSSGDVPGARGAVEGILIQQVFESGGSKKCIQVGGEFYTPSKFEDSGSGKNKARSSSGPKPLVRAKGAQGAAPGGGEARLGQQGSVPAPLALPSDPQLHQKNEDECAVCRDGGELICCDGCPRAFHLACLSPPLREIPSGTWRCSSCLQATVQEVQPRAEEPRPQEPPVETPLPPGLRSAGEEVRGPPGEPLAGMDTTLVYKHLPAPPSAAPLPGLDSSALHPLLCVGPEGQQNLAPGARCGVCGDGTDVLRCTHCAAAFHWRCHFPAGTSRPGTGLRCRSCSGDVTPAPVEGVLAPSPARLAPGPAKDDTASHEPALHRDDLESLLSEHTFDGILQWAIQSMARPAAPFPS

Variants of: B1
Experiment: AIRE transcriptional activation functional score (insulin promoter-GFP; nonsense median 0, synonymous median 1) (normalised score); higher = higher AIRE activity (more reporter activation)
Conditions: with insulin promoter-GFP reporter in HEK293
Experimental: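 Deep mutational scan of full-length human AIRE (codon-optimized cDNA, DT-POPCode NNN libraries over three regions) integrated at a Bxb1 landing pad in HEK293 cells carrying an insulin core promoter-GFP reporter at a Flp-In site. Cells were sorted for the top 10% GFP about 14 days after transfection. Variant frequency log-ratios (select vs non-select, TileSeq) were rescaled so that the nonsense median is 0 and the synonymous median is 1, then averaged over biological replicates.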

| Variant | AIRE transcriptional activation functional score |
| --- | --- |
| A5M | 0.955 ± 0.1 |
| H454D | 0.289 ± 0.075 |
| G313F | 1.13 ± 0.36 |
| L177M | 1.57 ± 0.099 |
| P542E | 0.426 ± 0.24 |
| T46G | -0.878 ± 0.15 |
| S474M | 0.192 ± 0.059 |
| L66V | 0.121 ± 0.2 |
| E375G | 0.999 ± 0.19 |
| A264I | -1.66 ± 0.39 |
| A264E | 0.901 ± 0.1 |
| G369F | 1.46 ± 0.06 |
| F82P | -0.365 ± 0.77 |
| A482K | 1.11 ± 0.17 |
| A482F | -0.132 ± 0.24 |
| C475H | 0.16 ± 0.15 |
| D297F | 0.8 ± 0.32 |
| T344P | 1.07 ± 0.27 |
| P176I | 1.65 ± 0.34 |
| P176F | 1.46 ± 0.3 |
| A152W | 1.68 ± 0.4 |

| Variant | AIRE transcriptional activation functional score |
| --- | --- |
| A21Y | 0.166 ± 0.29 |
| A386S | 0.756 ± 0.27 |
| A386Y | 1.55 ± 0.17 |
| L11P | 0.466 ± 0.29 |
| R89H | 0.994 ± 0.18 |
| K83H | 0.338 ± 0.23 |
| G150H | 1.19 ± 0.08 |
| P481M | 1.29 ± 0.04 |
| G112D | 1.13 ± 0.21 |
| L323W | 1.42 ± 0.12 |
| A193S | 0.899 ± 0.26 |
| A193Q | 1.88 ± 0.16 |
| T468R | 0.696 ± 0.3 |
| T468Q | 1.22 ± 0.19 |
| G155E | 0.777 ± 0.83 |
| G263S | 1.23 ± 0.24 |
| G263H | 0.227 ± 0.17 |
| E53D | 0.593 ± 0.21 |
| S24P | -0.246 ± 0.32 |
| D503K | 0.372 ± 0.22 |
| Q213K | 1.02 ± 0.019 |

| Variant | AIRE transcriptional activation functional score |
| --- | --- |
| R247W | 0.502 ± 0.025 |
| L28C | -0.067 ± 0.3 |
| G268I | 1.19 ± 0.14 |
| G268P | 0.869 ± 0.21 |
| A399C | 1.18 ± 0.21 |
| A413I | 1.34 ± 0.27 |
| P95I | 0.95 ± 0.28 |
| K235L | 0.897 ± 0.23 |
| T441H | 1.1 ± 0.27 |
| A121G | 1.4 ± 0.15 |
| T334H | 0.766 ± 0.4 |
| E354W | 1.16 ± 0.018 |
| A271N | 1.11 ± 0.13 |
| A343G | 0.94 ± 0.21 |
| D389T | 1.23 ± 0.044 |
| S287N | 1.13 ± 0.33 |
| S287P | 0.464 ± 0.031 |
| S107A | 1.04 ± 0.27 |
| L409G | 0.891 ± 0.22 |
| P166T | 1.36 ± 0.56 |
| P166W | -0.356 ± 0.47 |

| Variant | AIRE transcriptional activation functional score |
| --- | --- |
| R113H | 1.08 ± 0.67 |
| V38Y | 0.622 ± 0.26 |
| L516Y | 1.01 ± 0.34 |
| A141H | 1.12 ± 1.5 |
| S153Q | 0.582 ± 0.29 |
| S220Q | -1.55 ± 0.21 |
| R174C | 0.35 ± 0.28 |
| G180M | 0.445 ± 0.06 |
| E40N | -0.324 ± 0.28 |
| E45K | 0.348 ± 1.1 |
| V256T | 0.8 ± 0.3 |
| P430N | 1.14 ± 0.18 |
| G306S | 0.862 ± 0.09 |
| E376K | 1.15 ± 0.064 |
| L122M | 1.1 ± 0.05 |
| H14D | -0.577 ± 0.094 |
| V279G | 1.08 ± 0.14 |
| G251P | -0.0792 ± 0.35 |
| R465S | 1.04 ± 0.19 |
| L29P | -0.138 ± 0.54 |
